The values that follow come from the nanobody polyreactivity screen of Harvey et al. (2022).

The nature of the data set: yeast display, Sf9 membrane polyspecificity reagent, FACS + sequencing; frameworks hold sequencing errors. In short, it runs like this: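 Nanobodies came from a synthetic yeast display library in Saccharomyces cerevisiae BJ5465, induced with galactose for 36–48 hours and stained for 1 hour at 4 °C with 10% biotinylated, detergent-solubilized Sf9 membrane reagent. Cells were enriched on streptavidin microbeads and then FACS-sorted, with low and high (top ~1%) gates set on anti-HA fluorescence for expression and streptavidin fluorescence for reagent binding. Each polyreactivity label reflects the gate a clone came from. Genes were amplified by colony PCR, sequenced by MiSeq 2 × 250 and filtered by CDR length.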
Take “QVQLVESGGGLVQAGGSLRLSCAASGSTFLNYAMGWSRQAPGKERELVAAISGSTTRTYYADSVKGRFTISRDNAKNPVYLQMNSLKPEDTAVYYCAARVRYPPYRSSDGQRAGYWGQGTQVTVSS”: the “polyreactivity (PSR sort gate)” value was “high polyreactivity”.
Next, “QVQLVESGGGLVQAGGSLRLSCAASGSTFLRFAMGWYRQAPGKERELVARISGGGTTYYADSVKGRFTISRDNAKNTVYLQMNSLKPEDTAVYYCNAFYFYVNQGRYEYGYWGQGTQVTVSS”: “high polyreactivity”; “QVQLVESGGGLVQAGGSLRLSCAASGSTFLRNAMGWYRQAPGKERELVATISRTGGTTYYADSVKGRFSISRDNAKTTVYLQMNSLKPEDTAVYYCAAYSKYGQHYDYWGQGTQVTVSS”: “high polyreactivity”; “QVQLVESGGGLVQAGGSLRLSCAASGSTFLRNAMGWYRQAPGKERELVATISTGSGRTYYADSVKGRFTISRDNAKNTVYLQMNSLKPEDTAVYYCATRVPLGPYYYGMYYWGQGTQVTVSS”: “high polyreactivity”.
Next, “QVQLVESGGGLVQAGGSLRLSCAASGSTFLRYAMGWYRQAPGKERELVAAISYRDGSTYYADSVKGRFTISRDNAKNTVYLQMNSLKPEDTAVYYCARGSWYRSAYYYWGQGTQVTVSS”: “high polyreactivity”; “QVQLVESGGGLVQAGGSLRLSCAASGSTFLRYAMGWYRQAPGKERELVADITTSGGITYYADSVKGRFTISRDNAKNTVYLQMNSLKPEDTAVYYCAARYLPYRRIKYDYWGQGTQVTVSS”: “low polyreactivity”.
As for “QVQLVESGGGLVQAGGSLRLSCAASGSTFLSNAMGWYRQAPGKERELVAAISVSGARTYYADSVKGRFTISRDNAKNTVYLQMNSLKPEDTAVYYCNAGTSVRYTESSDYWGQATQVTVSS”, the “polyreactivity (PSR sort gate)” value is listed as “high polyreactivity”.
Next, “QVQLVESGGGLVQAGGSLRLSCAASGSTFLSNAMGWYRQAPGKERELVAAITTSGTSTFYADSVKGRFTISRDNAKNTVYLQMNSLKPEDTAVYCAKDYLPYLHFVAPSTGDYDYWGQGTQVTVSS”: “low polyreactivity”; “QVQLVESGGGLVQAGGSLRLSCAASGSTFLTNTMGWYRQAPGKERELVAAISKSGGSTYYADSVKGRFTISRDNAKNTVYLQMNSLKPEDTAVYYCAAVRYVHFGYDYWGQGTQVTVSS”: “high polyreactivity”.
Next, “QVQLVESGGGLVQAGGSLRLSCAASGSTFLTNVMGWYRQAPGKEREFVAAITANGGRTYYADSVKGRFTISRDYAKMTVYLQMNSLKPEDTAVYYAVETAWSYNSNYWFDYWGEGTQVTVSS”: “high polyreactivity”; “QVQLVESGGGLVQAGGSLRLSCAASGSTFLVYAMGWYRPAPGKERELVAAITQIDGSTYNADSVKGRFTISRDNSKNTVYLQRHSLKPEDTAVYYCAARYFWTYEYDYWGQGTQVTVSS”: “low polyreactivity”.
“QVQLVESGGGLVQAGGSLRLSCAASGSTFLVYAMGWYRQAPGKERELVAAINFSGSSTYYADSVKGRFTISRDNAENTVYLQMNSLKPEDTAVYYCAADSLELWYGYFWVKVPYDYWGQGTQVTVSS”: the “polyreactivity (PSR sort gate)” value is reported as “low polyreactivity”.
Take “QVQLVESGGGLVQAGGSLRLSCAASGSTFLWYAMGWYRQAPGKERELVAVIDWSGGSTSYADSVKGRFTISRDNAKNTVYLQMNSLKPEDTAVYYCAADYGHYYGLYYWGQGTQVTVSS”: the “polyreactivity (PSR sort gate)” value is reported as “low polyreactivity”.
Next, “QVQLVESGGGLVQAGGSLRLSCAASGSTFLYNAIGWYRQAPGKERELVAAISSGGRTKYADSVKGRFTISRDTAKNTVYLQMNSLKPEDTAVYYCAAESYTGKYCWVWKWYDYWGQGTQVTVSS”: “low polyreactivity”; “QVQLVESGGGLVQAGGSLRLSCAASGSTFLYYAMGWSRQAPGKERELVAVISWSGVSTYYADSVKGRFTISRDNAKNSVYLQMNSLKPEDTAVYYCYTGYHYIRSYGYWGQGTQVTVSS”: “low polyreactivity”; “QVQLVESGGGLVQAGGSLRLSCAASGSTFLYYAMGWYRQAPGKERELVAVIRLDAGRTYYADSVKGRFTISRDNAKNTVYFQMNSLKPEDTAVYYCAAKGSFRTYGGGNYWGQGTQVTVSS”: “high polyreactivity”.
Next, “QVQLVESGGGLVQAGGSLRLSCAASGSTFLYYAMGWYRQAPGKESELVAAIDSGGSTYYADSVKGRFTISRDNAKNTVYLQMNSLKPEDTAVYYCNADPPPEYYPDKDNYWGQGTQVTVSS”: “low polyreactivity”; “QVQLVESGGGLVQAGGSLRLSCAASGSTFLYYAMGWYRQAPGKESELVARITTRVGRTYYADSVKGRFTISRDNAKNTVYLQMNSLKPEDTAVYYCNAPYLKSRFRAYYHWGQGTQVTVAS”: “high polyreactivity”; “QVQLVESGGGLVQAGGSLRLSCAASGSTFLYYAMGWYRQATGKERELVAAIDSGGSTYYADSVKGRFTISRDNAKNTVYLQMNSLKPEDTAVYYCNADFADHWPPNGPGAHDYWGQGTQVTVSS”: “low polyreactivity”.
Next, “QVQLVESGGGLVQAGGSLRLSCAASGSTFNAYAMGWYRQAPGKERELVAAITDGDSTNYADSVKGRSTISRDNAKNTVYLQMNSLKPEDTAVYYCAKDSSVGDGDDGWVWFDLYYWGQGTQVTVSS”: “low polyreactivity”; “QVQLVESGGGLVQAGGSLRLSCAASGSTFNAYDMGWYRQAPGKERELVAAISTSGDSTYFADSVKGRFTISRDNAKNTVYLQMNSLKPEDTAVYYCARDIYHYGYDYWGQGTQVTVSS”: “low polyreactivity”; “QVQLVESGGGLVQAGGSLRLSCAASGSTFNCYHMGWYRQAPGKEMELVAAITGSGGYTYYADSVKGRFTISRDNAKNTVYLQMKSLNPEETAVYYCAAKKVAGRRFYYWGQGTQVTVSS”: “low polyreactivity”.
“QVQLVESGGGLVQAGGSLRLSCAASGSTFNDNAMGWYRQAPGKERELVAGISYSGGSTYYADSVKGRFTISRDHAKNTVYLQMNSLKPEDTAVYYCNADVTGLSQFGYWGQGTQVTVSS”: the “polyreactivity (PSR sort gate)” value is on record as “low polyreactivity”.
Next, “QVQLVESGGGLVQAGGSLRLSCAASGSTFNDYDMGWYRQAPGNERELVAAISSGGSTYYADSVKGRFTISRDNAKNTVYLQMNSLKPEDTAVYYCAAVLGVWGGVGSEGDFWGQGTQVTVSS”: “low polyreactivity”; “QVQLVESGGGLVQAGGSLRLSCAASGSTFNDYTMGWYRQAPGKERELVAAITDSGGSTYYADSVKGRFTISRDNAKNTVYLQMNSLKPEDTAVYYCAAAVPELYEVRYHDDYWGQGTQVTVSS”: “low polyreactivity”.
“QVQLVESGGGLVQAGGSLRLSCAASGSTFNFYAMGWYRQAPGKDREFVAAITSSGDSTYYADSVKGRFTISRDNAKNTAYLQMNSLKPEDTAVYYCAARLRWRYSYDYWGQGTQVTVSS”: the “polyreactivity (PSR sort gate)” value is on record as “high polyreactivity”.
Take “QVQLVESGGGLVQAGGSLRLSCAASGSTFNGYAMGWYRQAPGKERELVAAISKRGGGTYYADSVKGRFTISRDNAKNTVYLQMNSLKPEDTAVYYCAAVSGPFVQTSGNGEYDYWGQGTQVTVSS”: the “polyreactivity (PSR sort gate)” value is on record as “low polyreactivity”.
As for “QVQLVESGGGLVQAGGSLRLSCAASGSTFNGYAMGWYRQAPGKERELVAAISSRSGRTYYADSVKGRFTISRDNAKNTVYLQMNSLKPEDTAVYYCAAYNGSRRQEFDYWGQGTQVTVSS”, the “polyreactivity (PSR sort gate)” value is reported as “high polyreactivity”.
Next, “QVQLVESGGGLVQAGGSLRLSCAASGSTFNINAMGWYRPAPRKERELVARIRASGASTYYADSVKGRFTISRDNAKITVYLQMNSLKPDDTAVYYCAAYTYSFRANHDYWGQGTQVTVSS”: “high polyreactivity”; “QVQLVESGGGLVQAGGSLRLSCAASGSTFNIYAMGWYRQAPGKEREFVASIRWSGGSTYYADSVKGRFTISRDNAKNTVYLQMNSLKPEDTAVYYCAGRTFWGAYDYWGQGTQVTVSS”: “high polyreactivity”.
To “QVQLVESGGGLVQAGGSLRLSCAASGSTFNNAMGWYRQPPGKERELVAAITRSGVRTYYADSVKGRFTISRDNAKNTVYLQMNSLKPEDTAVYYCAAGFQSRRYYAGYEYWGQGTQVTVSS” belongs “high polyreactivity”.
In the case of “QVQLVESGGGLVQAGGSLRLSCAASGSTFNQNAMGWYRQAPGKERELVAAITVDGSSTYYADSVKGRFTISRDNAKNTVYLQMNSLKPEDTAVYYCAAGYSARSSGYTGGYDYWGQGTQVTVSS”, the “polyreactivity (PSR sort gate)” value was “high polyreactivity”.
As for “QVQLVESGGGLVQAGGSLRLSCAASGSTFNRNTMGWYRQAPGKERELVASINRGGSTYYADSVKGRFTISRDNAKNTVYLQMNSLKPEDTAVYYCAKRVRKSYTGTQAPKKFGYWGQGSQVTVSS”, the “polyreactivity (PSR sort gate)” value was “low polyreactivity”.
Next, “QVQLVESGGGLVQAGGSLRLSCAASGSTFNRYAMGWYRQAPGKERELVAAISSGGTTYYADSVKGRFTSSRDNAKNTVYLQMNSLKPEDTAVYYCNARKYGWVQRIIIYDYWGQGTQVTVSS”: “high polyreactivity”; “QVQLVESGGGLVQAGGSLRLSCAASGSTFNRYAMGWYRQAPGKERELVAAITSTGGTNYADSVKGRFTISLDNAKNTVYLQMNSLKPEDTAVYYCAKRWLRWRSNYWGQGTQVTVSS”: “high polyreactivity”; “QVQLVESGGGLVQAGGSLRLSCAASGSTFNRYAMGWYRQAPGKERELVASISCSGGASTYYADSVKGRFTISRDNAKNTVYLQMNSLKPEDTAVYYCAVSRDSYGGKGSVLYDYWGQGTQVTVSS”: “low polyreactivity”.
Regarding “QVQLVESGGGLVQAGGSLRLSCAASGSTFNRYGMGWYIQAPGKERELVAAISGSNGGTYYADSVKGRFTISRDNAKNTVYLQMNSLKPEDTAVYFCAKVRAYTRLGLTVSMDYWGQGTKVTVSS”, the “polyreactivity (PSR sort gate)” value is “high polyreactivity”.
To “QVQLVESGGGLVQAGGSLRLSCAASGSTFNRYVMGWYRQAPGKERELVAANGGRTYYADSVKGRFTISRDNAKNTVYLQMNSLKPEDTAVYYCNARSYKHPYYRFDYWGQGTQVTVSS” belongs “high polyreactivity”; to “QVQLVESGGGLVQAGGSLRLSCAASGSTFNSYAMGWYRQAPGKERELVAAISWSGGSTYYADSVKGRFTISRDNAKNTVYLQMNSLKPEDTAVYYCNADYWWEYAYGVDYWGQGTQVTVSS”, “low polyreactivity”; to “QVQLVESGGGLVQAGGSLRLSCAASGSTFNSYARGWYRQAPGTERELVAAITSSVGSTYYADSVKGRFTISRDNAKNTVYLQMNSLKPEDTAVYYCDRDYFNREAFDYWGQGTQVTVSS”, “low polyreactivity”.
